Residue numbers refer to the chain shown, from its start.
B1: anti-GGX monoclonal antibody 2E9 (rabbit IgG) (antibody, V domains shown)
VH: QKQLMESGGRLVTPGTPLTLTCKVSGFSLSSYYMNWVRQAPGKGLEWIGIMFPNGKIYYATWAKGRFTISKTSTTVDLKIISPTTEDTATYFCTGDDSGDVNIWGPGTLVTVSS
VL: DIVLTQTASPVSAAVGGTVTINCQSSQSVYTNNRLAWYQQKPGQPAKEMIYGASTLPSGVSSRFKGSGSGTQFALTISDVQCDDAATYYCLGEFDCTSADCFVFGGGTEVVVKG
B2: anti-GGX monoclonal antibody 2H2 (rabbit IgG) (antibody, V domains shown)
VH: QSVEESRGRLVTPGTPLTLTCKVSGFSLSSYYMNWVRQAPGKGLEWIGIMFPNGKIYYATWAKGRFTISKTSTTVDLKIISPTTEDTATYFCTGDDSGDVNIWGPGTLVTVSS
VL: B1 VL with I2P, V3M, T31S, A46P, A74T, E93T, F94Y, T97L, F102L, V103A
B3: anti-GGX monoclonal antibody 2B12 (rabbit IgG) (antibody, V domains shown)
VH: QSVEESGGGLVTPGGALTLTCTASGFSLNRHWMNWVRQAPGKGLEWIGAINESGRTYYATWAKGRFFISKTTTTVDLKITSPTTADTATYFCVRDDDVSNFWGPGTLVTVSS
VL: DPMLTQTPSSVSAAVGGTVSINCQSTKSVYKYNHLSWYQQKPGQPPKQLIFPASTLQSGVPSRFSGSGSGTQFTLTISDVQCDDAATYYCLGLYDCRSGDCNVFGGGTKLEIKG

Biological target: internal GGX peptides (genome-encoded GGX sequences exposed by trypsin digestion of HEK293 lysate)
Assay: immunoaffinity enrichment from trypsin-digested HEK293 lysate, LC-MS/MS; count of internal GGX sequences enriched

Shared sequences	Unique sequences	Binder
14 sequences	41 sequences	B1
20 sequences	47 sequences	B2
8 sequences	8 sequences	B3
